Numbering of substitutions follows the chain as printed. Names and notes keep the numbering of the source.
B1: wild-type CD147 extracellular portion (residues 22-205) tagged with 6 x His, P35613-2 22-205 (domain or fragment)
chain: AAGTVFTTVEDLGSKILLTCSLNDSATEVTGHRWLKGGVVLKEDALPGQKTEFKVDSDDQWGEYSCVFLPEPMGTANIQLHGPPRVKAVKSSEHINEGETAMLVCKSESVPPVTDWAWYKITDSEDKALMNGSESRFFVSSSQGRSELHIENLNMEADPGQYRCNGTSSKGSDQAIITLRVRSH
B2: CD147 mutant E73A, extracellular portion tagged with 6 x His (domain or fragment, UniProt P35613-2 22-205, looked up)
chain: B1 chain with E52A
notes: CD147 (EMMPRIN, HAb18G/CD147), extracellular portion, residues 22-205 as for CD147wt, with E73A; also called CD147mt; CD147mts; source: prokaryotic expression system, purified
B3: CD147 mutant E64A, extracellular portion tagged with 6 x His (domain or fragment, UniProt P35613-2 22-205, looked up)
chain: B1 chain with E43A
notes: CD147 (EMMPRIN, HAb18G/CD147), extracellular portion, residues 22-205 as for CD147wt, with E64A; also called CD147mt; CD147mts; source: prokaryotic expression system, purified

What was measured:
[1] = biological target: T1, wild-type CD147 extracellular portion (residues 22-205) tagged with 6 x His, P35613; assay: native gel or EMSA; non-denaturing SDS-PAGE: 5 ug purified protein with DMSO or AC-73 (0, 0.1, 0.25 or 0.5 uM), 5x Laemmli sample buffer lacking SDS, 10% SDS-PAGE without boiling, immunoblot with anti-His6; monomer and dimer bands; settings: remark: other sources report otherwise
T1 chain: B1 chain

[2] = biological target: the molecule itself; assay: as above

| Binder | stoichiometry N [1] | binding result [2] |
| --- | --- | --- |
| B1 | 2 |  |
| B2 |  | binds |
| B3 |  | binds |

— article PMC4891050, “A novel small-molecule compound targeting CD147 inhibits the motility and invasion of hepatocellular carcinoma cells” (Oncotarget, 2016)
